Positions count from the first letter of the chain named. In names and notes the source's numbering stands.
How the values were obtained:
[1] = molecular target: T1, Lactobacillus fermentum N-deoxyribosyl transferase (NTD, LF), native/wild type, SEQ ID No. 2 (Limosilactobacillus fermentum, UniProt Q6YNI5); test: Enzymatic activity tests (dT+C, ddT+C and d4T+C reactions), native enzyme LF; type: biochemical; conditions: deoxyribosyl donor + C (cytosine)
T1 construct: crude extract or purified
T1 sequence (Q6YNI5 1-168): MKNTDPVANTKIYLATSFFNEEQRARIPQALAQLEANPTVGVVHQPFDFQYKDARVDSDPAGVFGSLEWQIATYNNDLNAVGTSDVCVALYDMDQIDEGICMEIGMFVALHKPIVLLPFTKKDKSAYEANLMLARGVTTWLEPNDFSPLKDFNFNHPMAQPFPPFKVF
Protocol: (§1) 50 μl of enzymatic extract is added to 200 μl of 100 mM citrate buffer, pH 6.44, in the presence of 3 mM ddU or dU final and of 1 mM C final for the strain PAK9, the whole is incubated at 37° C. The progress of the reaction is monitored by TLC (silica; eluent: MeOH—CH2Cl2 (20/80)). […] The disappearance of the substrates and the formation of the products were also quantified by HPLC analysis. The different products are separated by analytical HPLC with a reversed-phase column (100-5C18) using a flow rate of 1 ml/min and a linear gradient of 5-25% CH3CN in a 10 mM triethyl ammonium acetate buffer at pH 7.5 for 20 minutes.
(§2) were used as primer in an amplification reaction under standard conditions using the ntd gene of L. fermentum cloned in pSU19 (pLF6) as DNA matrix. The amplification product was digested by the restriction enzymes Nde1 and BamH1 for 2 hours at 37° C., purified on agarose gel and inserted into the plasmid pET24a digested by the same enzymes then the ligation mixture is used to transform the strain β 2033. The plasmid DNA from the colonies was prepared and digested by the enzymes Nde1 and BamH1. […]
(§3) The cells are then centrifuged for 15′ at 4000 rpm at 4° C., washed in 50 ml of phosphate buffer then the pellet obtained after centrifugation is preserved overnight at −20° C. […] The fractions are then analyzed by SDS-PAGE gel and the enzymatic activity determined. […] The protein concentration is determined by measuring the OD at 280 nm. […]
(§4) The enzymatic activities of the native and mutant N-deoxyribosyl transferases of L. leichmannii (LL and LL G9S) and of L. fermentum (LF and LFA15T) in the exchange reactions dT+C ? dC+T, ddT+C ? ddC+T and d4T+C ? d4C+T were evaluated starting from crude extracts or purified proteins.
(§5) These different values were measured according to the protocol described in the literature [P A Kaminski (2002) “Functional cloning, heterologous expression and purification of two different N-deoxyribosyl transferases from Lactobacillus helveticus” J. Biol. Chem; vol. […]

[2] = test system: HIV (human immunodeficiency virus); conditions: cited from earlier work
[3] = molecular target: T2, Lactobacillus fermentum N-deoxyribosyl transferase (NTD) variant LFA15T, mutation A15T, SEQ ID No. 4 (Limosilactobacillus fermentum, UniProt Q6YNI5, A15T); test: Enzymatic activity tests (dT+C, ddT+C and d4T+C reactions), mutated enzyme LFA15T; type: biochemical; conditions: mutant LFA15T; deoxyribosyl donor + C (cytosine)
T2 construct: crude extract or purified
T2 sequence (Q6YNI5 1-168 A15T): T1 sequence (Q6YNI5 1-168) with A15T
Protocol: (§6) The sequencing of the plasmids present in the selected transformants of PAK 9 made it possible to identify a mutation in the sequence (ntd) having the effect of substituting a residue T for the residue A in position 15 in the corresponding protein sequence (SEQ ID No. 2) (mutation called A15T).
50 μl of enzymatic extract is added to 200 μl of 100 mM citrate buffer, pH 6.44, in the presence of 3 mM ddU or dU final and of 1 mM C final for the strain PAK9, the whole is incubated at 37° C. The progress of the reaction is monitored by TLC (silica; eluent: MeOH—CH2Cl2 (20/80)). […] The disappearance of the substrates and the formation of the products were also quantified by HPLC analysis. […]
as §3
The enzymatic activities of the native and mutant N-deoxyribosyl transferases of L. leichmannii (LL and LL G9S) and of L. fermentum (LF and LFA15T) in the exchange reactions dT+C ? dC+T, ddT+C ? ddC+T and d4T+C ? d4C+T were evaluated starting from crude extracts or purified proteins. […]

[4] = exchange reaction ddT + C (transfer of dideoxyribose), specific activity of N-deoxyribosyl transferases; type: biochemical; conditions: for specific activity, ddT + C: relative, 100% = specific activity of NTD of L. leichmannii (LL) in dT + C, crude extracts or purified proteins
Protocol: (§7) The cells are then centrifuged at 4000 rpm for 30 minutes at 4° C., the pellet is resuspended in 10 ml of phosphate buffer (Na2HP04+NaH2PO4) at 50 mM (pH=7.5). After centrifugation, the pellet is resuspended in 1 ml of the same buffer. The cells, preserved in ice, are then subjected to three cycles of 30 s of sonication and 30 s of rest. After centrifugation at 12000 rpm for 2×15 minutes at 4° C., the supernatants are recovered and stored at −20° C.
as §1
(§8) The cells are then centrifuged for 15′ at 4000 rpm at 4° C., washed in 50 ml of phosphate buffer then the pellet obtained after centrifugation is preserved overnight at −20° C. The bacterial pellet resuspended in 20 ml of phosphate buffer is then lysed by passage through a French press at 14000 psi. The lysate is centrifuged for 90′ at 50,000 rpm. The supernatant containing the soluble proteins is then precipitated with ammonium sulphate (40% saturation). […] The fractions are then analyzed by SDS-PAGE gel and the enzymatic activity determined. […] The protein concentration is determined by measuring the OD at 280 nm. […]
as §4

[5] = exchange reaction d4T + C (transfer of didehydroribose), specific activity of N-deoxyribosyl transferases; type: biochemical; conditions: for specific activity, d4T + C: relative, 100% = specific activity of NTD of L. leichmannii (LL) in dT + C, crude extracts or purified proteins
Protocol: as §7, §1, §8, §4

[6] = exchange reaction dT + C (transfer of deoxyribose), specific activity of N-deoxyribosyl transferases; type: biochemical; conditions: for specific activity, dT + C: relative, 100% = specific activity of NTD of L. leichmannii (LL) in dT + C, crude extracts or purified proteins
Protocol: as §7, §1, §8, §4

[7] = substrate: Cc1cn([C@H]2C[C@H](O)[C@@H](CO)O2)c(=O)[nH]c1=O; test: Enzymatic activity tests (dT+C, ddT+C and d4T+C reactions), native enzyme LF; type: biochemical, Lactobacillus fermentum; conditions: other: native LF; deoxyribosyl donor + C (cytosine); 37.0 °C
Protocol: as §1
(§9) were used as primer in an amplification reaction under standard conditions using the ntd gene of L. fermentum cloned in pSU19 (pLF6) as DNA matrix. The amplification product was digested by the restriction enzymes Nde1 and BamH1 for 2 hours at 37° C., purified on agarose gel and inserted into the plasmid pET24a digested by the same enzymes then the ligation mixture is used to transform the strain β 2033. The plasmid DNA from the colonies was prepared and digested by the enzymes Nde1 and BamH1. Those, the sequence of which was correct, were used to transform the strain BL21 (DE3)/plysS (Novagen). The plasmid DNA of the mutant pSU19NLFA15T selected previously was prepared then digested by the enzymes Nde1 and BamH1. The corresponding fragment Nde1-BamH1 was then inserted into the plasmid pET24a digested by the same enzymes in order to produce the expression plasmid pETLFA15T useful to the expression of the mutated protein. A strain of E. coli transformed using the plasmid pETLFA15T was deposited at the CNCM (INSTITUT PASTEUR, 25 rue du Docteur Roux, F-75724 PARIS Cedex 15) on 22 Mar. 2004 under accession number I-3192. The overproduction of the two N-deoxyribosyl transferases, native and mutated, was obtained from cultures of this strain in 500 ml of LB medium supplemented with Km and Cm. These cultures were induced at an OD600=0.6 by the addition of IPTG (0.4 mM), the incubation being continued for 2 hours 30 minutes at 37° C.
(§10) The cells are then centrifuged for 15′ at 4000 rpm at 4° C., washed in 50 ml of phosphate buffer then the pellet obtained after centrifugation is preserved overnight at −20° C. The bacterial pellet resuspended in 20 ml of phosphate buffer is then lysed by passage through a French press at 14000 psi. The lysate is centrifuged for 90′ at 50,000 rpm. The supernatant containing the soluble proteins is then precipitated with ammonium sulphate (40% saturation). The precipitate obtained after centrifugation at 13900 rpm (20,000 g) for 30′ at 4° C. is resuspended in 1 ml of 100 mM phosphate buffer, pH 7.5, 1.5 M NaCl, then deposited on a Sephacryl S200 gel filtration column (Amersham-Pharmacia). The fractions are then analyzed by SDS-PAGE gel and the enzymatic activity determined. […] The protein concentration is determined by measuring the OD at 280 nm.
(§11) The measurement of the enzymatic activities is carried out as described in paragraph 4.2.
as §4
(§12) These different values were measured according to the protocol described in the literature [P A Kaminski (2002) “Functional cloning, heterologous expression and purification of two different N-deoxyribosyl transferases from Lactobacillus helveticus” J. Biol. Chem; vol. 277; 14400-14407]. […] The activities are increased respectively by 60% and 54%.

[8] = substrate: Cc1cn([C@H]2C=C[C@@H](CO)O2)c(=O)[nH]c1=O; test: as above; type: biochemical, Lactobacillus fermentum; conditions: other: native LF; deoxyribosyl donor + C (cytosine); 37.0 °C
Protocol: as §1, §9, §10, §11, §4, §12

[9] = substrate: Cc1cn([C@H]2CC[C@@H](CO)O2)c(=O)[nH]c1=O; test: as above; type: biochemical, Lactobacillus fermentum; conditions: other: native LF; deoxyribosyl donor + C (cytosine); 37.0 °C
Protocol: as §1, §9, §10, §11, §4, §12

[10] = substrate: Cc1cn([C@H]2C[C@H](O)[C@@H](CO)O2)c(=O)[nH]c1=O; test: Enzymatic activity tests (dT+C, ddT+C and d4T+C reactions), mutated enzyme LFA15T; type: biochemical, Lactobacillus fermentum; conditions: other: mutant LFA15T; deoxyribosyl donor + C (cytosine); 37.0 °C
Protocol: as §6, §1
as §2, with “BamH1. Those, the sequence of which was correct, were used to transform the strain BL21 (DE3)/plysS (Novagen). The plasmid DNA of the mutant pSU19NLFA15T selected previously was prepared then digested by the enzymes Nde1 and BamH1. The corresponding fragment Nde1-BamH1 was then inserted into the plasmid pET24a digested by the same enzymes in order to produce the expression plasmid pETLFA15T useful to the expression of the mutated protein.” for “BamH1.”
as §3, §4, §5

[11] = substrate: Cc1cn([C@H]2CC[C@@H](CO)O2)c(=O)[nH]c1=O; test: as above; type: biochemical, Lactobacillus fermentum; conditions: other: mutant LFA15T; deoxyribosyl donor + C (cytosine); 37.0 °C
Protocol: as §6, §1
as §2, with “BamH1. Those, the sequence of which was correct, were used to transform the strain BL21 (DE3)/plysS (Novagen). The plasmid DNA of the mutant pSU19NLFA15T selected previously was prepared then digested by the enzymes Nde1 and BamH1. The corresponding fragment Nde1-BamH1 was then inserted into the plasmid pET24a digested by the same enzymes in order to produce the expression plasmid pETLFA15T useful to the expression of the mutated protein.” for “BamH1.”
as §3, §4, §5

[12] = enzymatic activity test (kinetic constants), ddT+C reaction; type: biochemical
Protocol: as §12

[13] = enzymatic activity test (kinetic constants), d4T+C reaction; type: biochemical
Protocol: as §12

[14] = mutant LFA15T versus native enzyme LF
[15] = catalytic effectiveness Kcat/Km
[16] = mutated enzyme versus native enzyme

## Cc1cn([C@H]2C=C[C@@H](CO)O2)c(=O)[nH]c1=O [d4T, reference compound]
[1]
  Kcat: 0.56 µmol/s/µg

## OC[C@@H]1CC[C@H](n2cnc3c(O)ncnc32)O1 [ddl, 2′,3′-dideoxyinosine]
[2]
  inhibition of replication of HIV: effectively inhibit the replication of HIV

## Nc1ncnc2c1ncn2[C@H]1CC[C@@H](CO)O1 [ddA, 2′,3′-dideoxyadenosine]
[2]
  inhibition of replication of HIV: effectively inhibit the replication of HIV

## Cc1cn([C@H]2C[C@H](O)[C@@H](CO)O2)c(=O)[nH]c1=O [dT]
[1]
  Kcat: 0.665 µmol/s/µg
[3]
  Kcat: 0.242 µmol/s/µg

## Cc1cn([C@H]2CC[C@@H](CO)O2)c(=O)[nH]c1=O [ddT]
[1]
  Kcat: 0.038 µmol/s/µg
[3]
  Kcat: 0.156 µmol/s/µg

B1: Lactobacillus fermentum N-deoxyribosyl transferase (NTD, LF), native/wild type, SEQ ID No. 2 (Limosilactobacillus fermentum) (protein)
chain: T1 sequence (Q6YNI5 1-168)
notes: crude extract or purified
[4]
  specific activity, ddT + C: 0.9%
[5]
  specific activity, d4T + C: 2.1%
[6]
  specific activity, dT + C: 76.5%
[7]
  Km: 124 µM
  Vmax: 6.65 µmol/s
[8]
  Km: 1250 µM
  Vmax: 24 µmol/s
[9]
  Km: 80 µM
  Vmax: 5.7 µmol/s

B2: Lactobacillus fermentum N-deoxyribosyl transferase (NTD) variant LFA15T, mutation A15T, SEQ ID No. 4 (Limosilactobacillus fermentum; A15T) (protein)
chain: T1 sequence (Q6YNI5 1-168) with A15T
notes: crude extract or purified
[10]
  Km: 371 µM
  Vmax: 9.7 µmol/s
[11]
  Km: 53 µM
  Vmax: 7.8 µmol/s
[4]; [14]
  factor by which activity is increased, transfer of dideoxyribose: 3
[4]
  specific activity, ddT + C: 2.5%
[5]; [14]
  factor by which activity is increased, transfer of didehydroribose: 35
[5]
  specific activity, d4T + C: 73.5%
[12]; [15]
  times more effective than native enzyme LF, ddT+X exchange: 60 times
[12]; [16]
  increase of catalytic activity on ddT: 54%
[6]; [14]
  factor by which activity is reduced, transfer of deoxyribose: 7
[6]
  specific activity, dT + C: 10.7%
[13]; [15]
  times more effective than native enzyme LF, d4T+X exchange: 7.5 times
[13]; [16]
  increase of catalytic activity on d4T: 60%
